Experiments:
[1] = target: CFP-tagged ICln (C-ICln) (human) (UniProt P54105); assay: FRET or BRET; acceptor photobleaching FRET (FRETeff), living HEK cells, 37°C, after 10 min exposure to the hypotonic extracellular solution; CFP donor, YFP acceptor
[2] = target: CFP-tagged ICln (C-ICln) (human) (UniProt P54105); assay: FRET or BRET; acceptor photobleaching FRET (FRETeff), living HEK cells 24 h after transfection, 37°C, slightly hypertonic extracellular solution (317 mOsm, pH 7.4); CFP donor, YFP acceptor; whole cell bleached

Sequence of UniProt P54105 (P54105 whole entry): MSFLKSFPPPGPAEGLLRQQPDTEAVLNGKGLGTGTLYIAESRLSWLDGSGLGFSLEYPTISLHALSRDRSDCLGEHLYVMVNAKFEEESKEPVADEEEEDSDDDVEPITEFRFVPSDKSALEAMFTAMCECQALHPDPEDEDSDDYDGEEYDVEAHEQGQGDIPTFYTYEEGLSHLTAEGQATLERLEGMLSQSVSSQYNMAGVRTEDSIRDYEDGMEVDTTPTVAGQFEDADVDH

FRETeff [1]: 15.1
FRETeff [2]: 11.6
Substance: YFP-tagged 4.1R^80 (Y-4.1R^80) (natural protein)

— paper PMC4189953
